From patent US20090075270A1

B1: Kid toxin (endoribonuclease) of the parD locus of E. coli plasmid R1 (protein)
chain: MERGEIWLVSLDPTAGHEQQGTRPVLIVTPAAFNRVTRLPVVVPVTSGGNFARTAGFAVSLDGVGIRTTGVVRCDQPRTIDMKARGGKRLERVPETIMNEVLGRLSTILT

How the values were obtained:
[1] = target: Kid toxin (endoribonuclease) of the parD locus of E. coli plasmid R1 (Escherichia coli plasmid R1) (UniProt P13976); test: cell-based or functional assay
[2] = target: T1, Kis antitoxin of the parD locus of E. coli plasmid R1 (wild type), P13975
T1 chain: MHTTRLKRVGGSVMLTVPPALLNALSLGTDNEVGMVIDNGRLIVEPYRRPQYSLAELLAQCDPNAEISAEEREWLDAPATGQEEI

| Molecule | repA/copB ratio by Real Time-PCR, kis17kid sample against kiskid sample [1] [%] | cleavage of dnaB mRNA in vitro by purified Kid (4 pmols), alone or with Kis (6 pmols); primer extension [2] |
| --- | --- | --- |
| Kis17, thermo-sensitive mutant Kis antitoxin (P18L) (from UniProt P13975 1-85) | 38 |  |
| B1 |  | dnaB-mRNA is cleaved by Kid in vitro, and that this effect is inhibited when Kis is added to the reaction |
